Data taken from patent US20210380703A1 (RIGEL PHARMACEUTICALS, published 2021).
Residue numbers refer to the chain shown, from its start.

B1: 369_G04 (antibody, V domains shown)
VH: EVQLLESGGGLVQPGGSLRLSCAASGFTFDSYSMNWVRQAPGKGLEWVSGINYNGGYTSYADSVKGRFTISRDNSKNTLYLQMNSLRAEDTAVYYCARSANWHDTALDYWGQGTLVTVSS
VL: DIQMTQSPSSLSASVGDRVTITCRASQSILTYVNWYQQKPGKAPKLLIYATTSRHSGVPSRFSGSGSGTDFTLTISSLQPEDFATYYCQQSYETPLTFGGGTKVEIK
B2: 369_G12 (antibody, V domains shown)
VH: B1 VH with D30S, S49A, G50N, S59G
VL: B1 VL with L47V, T51A, Y92D, E93N
B3: 370_A04 (antibody, V domains shown)
VH: B1 VH
VL: B1 VL with L30I, V33L, T51A, H55A, E93D, T94N
B4: 370_F05 (antibody, V domains shown)
VH: B1 VH with D30S, S33G, G55S
VL: B1 VL with L30V, T31S, L47V, T51A, H55A
B5: 369_H06 (antibody, V domains shown)
VH: B1 VH with D30S, S33G, S49A, G50N, T58K
VL: B1 VL with L30V, T31S, T51A, H55A, E93D
B6: 370_E09 (antibody, V domains shown)
VH: B1 VH with S31D, Y32S, N35H, G50N, S59G, R98K
VL: B1 VL with T31S, L47V, T51A, H55A, T94L
B7: 369_H05 (antibody, V domains shown)
VH: B1 VH with D30S, S33G, S49A, G50N, S59G
VL: B1 VL with L30V, T31S, T51A, H55A, E93S, T94N
B8: 370_A12 (antibody, V domains shown)
VH: B1 VH with D30S, S33G, S49A
VL: B1 VL with V33L, T51A, R54L, H55A, E93D, T94S
B9: 370_C05 (antibody, V domains shown)
VH: B1 VH with D30S, S49A, G55S, S59G
VL: B1 VL with T31S, L47V, T51A, H55A, E93N, T94S
B10: 370_E03 (antibody, V domains shown)
VH: B1 VH with D30S, S33G, G50S, T58K, S59G
VL: B1 VL with V33L, L47V, A50Y, T51A, T52S, S53N, H55A, E93D, T94S
B11: 370_G06 (antibody, V domains shown)
VH: B1 VH with D30S, S31D, S33G, N35H, G50S
VL: B1 VL with T31S, L47V, T51A, H55A, Y92D, E93N
B12: 370_E06 (antibody, V domains shown)
VH: B1 VH with D30S, S33G, G55S, T58K
VL: B1 VL with T31S, V33L, L47V, R54L, H55A, E93D
B13: 370_G03 (antibody, V domains shown)
VH: B1 VH with D30S, S49A, G50N, S59G
VL: B1 VL with L47V, H55A, E93N, T94N
B14: 370_C01 (antibody, V domains shown)
VH: B1 VH with G55S, S59G
VL: B1 VL with V33L, L47V, T51A, R54L, H55A, E93D
B15: 370_G02 (antibody, V domains shown)
VH: B1 VH with D30S, S31D, S49A, G50N, T58K, S59G
VL: B1 VL with L30V, T31S, V33L, T51A, E93D, T94S
B16: 370_A01 (antibody, V domains shown)
VH: B1 VH with D30S, G55S, T58K
VL: B1 VL with L30S, V33L, L47V, T51A, H55A, E93N, T94L
B17: 369_H09 (antibody, V domains shown)
VH: B1 VH with S31D
VL: B1 VL with T31S, T51V, R54L, H55A, T94S
B18: 370_D11 (antibody, V domains shown)
VH: B1 VH with S59G
VL: B1 VL with L30V, T31S, V33L, T51A, H55A, E93D
B19: 370_F07 (antibody, V domains shown)
VH: B1 VH with G50N, T58K, S59G
VL: B1 VL with T31S, V33L, T51A, H55A, E93N, T94L
B20: 370_C08 (antibody, V domains shown)
VH: B1 VH with D30S, S33G, S49A, T58K, S59G
VL: B1 VL with L30S, T31N, V33L, T51V, H55A, E93D, T94S
B21: 370_C09 (antibody, V domains shown)
VH: B1 VH with S33G
VL: B1 VL with L30I, T31S, V33L, L47V, T51A, R54L, H55A, E93S
B22: 369_G06 (antibody, V domains shown)
VH: B1 VH with S33G, S49A
VL: B1 VL with T31S, L47V, T51A, H55A, T94N
B23: 370_C03 (antibody, V domains shown)
VH: B1 VH with D30S, S33G, S49A, T58K, S59G
VL: B1 VL with V33L, A50Y, T51V, S53N, H55Q, E93S, T94S
B24: 370_D04 (antibody, V domains shown)
VH: B1 VH with S49A, G50N, G55S, T58K, S59G
VL: B1 VL with V33L, L47V, T51A, H55A, E93D, T94N
B25: 370_F10 (antibody, V domains shown)
VH: B1 VH with D30S, S49A
VL: B1 VL with L30V, T31S, V33L, L47V, T51A, H55A, E93N, T94S
B26: 369_G11 (antibody, V domains shown)
VH: B1 VH with D30S, S49A, G50N, G55S, T58K, S59G
VL: B1 VL with V33L, T51A, R54L, H55A, T94S

These binders were tested against T1, Human ACVR2A (human, UniProt P27037 20-135, limits assumed) (assay: ELISA).
T1 construct: also called activin receptor, type II A
T1 sequence (P27037 20-135 limits assumed): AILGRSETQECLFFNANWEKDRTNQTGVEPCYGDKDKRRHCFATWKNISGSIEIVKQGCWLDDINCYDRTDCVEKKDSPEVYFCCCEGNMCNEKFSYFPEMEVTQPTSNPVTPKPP
Procedure, shortened: (§1)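 mAb binding by ELISA; antigens: hu ACVR2A, mu ACVR2A; pos ctrl biotinylated goat anti-hu kappa LC; neg ctrl hu Fc.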
Note: test concentration or dose not given here.

optical density | Binder
2.37 OD | B1
1.77 OD | B2
2.57 OD | B3
2.76 OD | B4
3.23 OD | B5
3.45 OD | B6
3.25 OD | B7
3.06 OD | B8
3.21 OD | B9
3.64 OD | B10
2.19 OD | B11
2.9 OD | B12
3.1 OD | B13
3.29 OD | B14
2.98 OD | B15
2.86 OD | B16
2.36 OD | B17
2.72 OD | B18
3.45 OD | B19
2.73 OD | B20
1.97 OD | B21
2.98 OD | B22
3.59 OD | B23
3.59 OD | B24
3.15 OD | B25
3.03 OD | B26

These binders were tested against Mouse ACVR2A (mouse, UniProt P27038 20-135, limits assumed) (assay: ELISA).
Sequence of Mouse ACVR2A (P27038 20-135 limits assumed): as the sequence (P27037 20-135 limits assumed) above, with K20R, V73I counted along it
Procedure, shortened: as §1

optical density | Binder
2.69 OD | B1
1.88 OD | B2
2.74 OD | B3
2.91 OD | B4
3.56 OD | B5
3.56 OD | B6
3.34 OD | B7
3.19 OD | B8
3.55 OD | B9
3.74 OD | B10
2.33 OD | B11
3.02 OD | B12
3.44 OD | B13
3.38 OD | B14
3.22 OD | B15
2.96 OD | B16
2.64 OD | B17
2.79 OD | B18
3.53 OD | B19
2.97 OD | B20
2.25 OD | B21
2.91 OD | B22
3.77 OD | B23
3.74 OD | B24
3.22 OD | B25
3.06 OD | B26

These binders were tested against T2, Goat anti-Human Kappa (assay: ELISA, positive control).
T2 construct: Positive control of the ELISA; also called biotinylated goat anti-human kappa light chain
Procedure, shortened: as §1

optical density | Binder
3.32 OD | B1
2.65 OD | B2
3.48 OD | B3
3.54 OD | B4
3.5 OD | B5
3.6 OD | B6
3.54 OD | B7
3.72 OD | B8
3.56 OD | B9
3.57 OD | B10
3.41 OD | B11
3.61 OD | B12
3.58 OD | B13
3.62 OD | B14
3.62 OD | B15
3.62 OD | B16
3.51 OD | B17
3.38 OD | B18
3.52 OD | B19
3.11 OD | B20
3.48 OD | B21
3.38 OD | B22
3.57 OD | B23
3.6 OD | B24
3.64 OD | B25
2.59 OD | B26
